Data on one molecule can be found in patent US11300572B2, “Methods and systems for producing nanolipoprotein particles” (LAWRENCE LIVERMORE NATIONAL SECURITY, LLC, priority 2007, dated 2022).

This data set is classed as physicochemical. As to the method: Cell-free reactions were then performed. In particular, preparative reactions are carried out using the Invitrogen's Expressway Maxi kit or Roche's RTS 500 ProteoMaster Kit. Basically, lyophilized reaction components (Lysate, Reaction Mix, Amino Acid Mix, Methionine) are dissolved in Reconstitution Buffer and combined as specified by the manufacturer. For co-expression a total of 5 μg of each plasmid DNA (bOp and Δ49A1) was added to the lysate mixture with added DMPC vesicles and retinal cofactor (see below). The reactions were incubated at 30° C. or 37° C. for 4-24 h. For membrane protein survey studies co-expression of 0.2 ug Δ49A1 DNA and 1 ug of each membrane protein DNA was added to the cell-free mixture where [^35S]Met (135 mCi/mmol final) (Perkin Elmer, Waltham, Mass.) was added in place of methionine. The soluble fraction was obtained by centrifuging the reactions at 14000×g for 5 min. Autoradiograms were generated by overnight exposures to proteins separated by SDS-PAGE (data not shown). Percent solubility was determined using ImageJ software (U. S. National Institutes of Health) to quantize autoradiogram bands for the soluble fractions in the presence and absence of apolipoprotein Δ49A1.
All were expressed in the presence of 30-50 μM all-trans-retinal and 2 mg/mL DMPC. […]
The NLPs were also analyzed by SDS Page. […]

B1: bR: bacteriorhodopsin from H. salinarium, seven transmembrane protein, cell-free expressed from bOp with all-trans retinal (protein, UniProt P02945 14-262, looked up)
Bacteriorhodopsin: QAQITGRPEWIWLALGTALMGLGTLYFLVKGMGVSDPDAKKFYAITTLVPAIAFTMYLSMLLGYGLTMVPFGGEQNPIYWARYADWLFTTPLLLLDLALLVDADQGTILALVGADGIMIGTGLVGALTKVYSYRFVWWAISTAAMLYILYVLFFGFTSKAESMRPEVASTFKVLRNVTVVLWSAYPVVWLIGSEGAGIVPLNIETLLFMVLDVSAKVGFGLILLRSRAIFGEAEAPEPSAGDGAAATSD
modifications: all-trans retinal chromophore
Turning to B1, the “solubility of bR” value was “insoluble”.
